± gives the standard error. Fewer inactive variants are shown than the library holds.
B1: glmS ribozyme (parent)
chain: AUAAAAGCGCCAGAACUACAGAAAUGUAGUUGACGAGGAGGAGGUUUAUCGAAUUUUCGGCGGAUGCCUCCAAA

Variants of: B1
Test: self-cleavage kobs at 10000 uM GlcN6P; higher = faster cleavage; RNA array
Settings: with glucosamine-6-phosphate
Outline: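 On sequenced MiSeq chips, barcoded ribozyme variants were made in situ by E. coli RNA polymerase and followed at 37 °C through a hybridised Cy3 probe. Glucosamine-6-phosphate was flowed in at 40 μM to 10 mM in HEPES/KCl/Mg(OAc)2 buffer. Exponential fits to normalised per-tile medians gave kobs, and weighted Michaelis–Menten fits gave kcat and KM.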

| Variant | self-cleavage kobs at 10000 uM GlcN6P |
| --- | --- |
| A12U U30C G32A A52U U65G C70G | < 1e-05 s⁻¹ |
| C8U C58G U69G | 0.000536 ± 0.00016 s⁻¹ |
| G43C G51U G62U | < 1e-05 s⁻¹ |
| G9U A14U | < 1e-05 s⁻¹ |
| C11U C34G G38A | < 1e-05 s⁻¹ |
| A6U G9A G43C A53C C70G | < 1e-05 s⁻¹ |
| G35U G41U A42C G62C C70A | < 1e-05 s⁻¹ |
| U54C C58G G63C | < 1e-05 s⁻¹ |
| G13A A22U U45G | 7.33e-05 ± 1e-05 s⁻¹ |
| G13U G40U C61U C68U | < 1e-05 s⁻¹ |
| U30G G41U G43A A48C C71U | < 1e-05 s⁻¹ |
| G7A G9C G40U | < 1e-05 s⁻¹ |
| G29U U55C U57A | 4.36e-05 ± 1.5e-05 s⁻¹ |
| G13A A42U U49G C58U | < 1e-05 s⁻¹ |
| A12U U54C G59U A64C | < 1e-05 s⁻¹ |
| A6C U56A C68G | < 1e-05 s⁻¹ |
| G13A A42C G60C | < 1e-05 s⁻¹ |
| A33G A48C C50U C70G | < 1e-05 s⁻¹ |
| C16G A33G C58G | < 1e-05 s⁻¹ |
| G37U G38A U45G G51A | < 1e-05 s⁻¹ |
| A12C U46C G51U U54A | < 1e-05 s⁻¹ |

| Variant | self-cleavage kobs at 10000 uM GlcN6P |
| --- | --- |
| G43C U55A G60U | < 1e-05 s⁻¹ |
| C8G A14C G38A U56A G59U | < 1e-05 s⁻¹ |
| G32A U54C U56C C58A | 9.78e-05 ± 2.1e-05 s⁻¹ |
| G37U G60U U69C | < 1e-05 s⁻¹ |
| C11G G13C G44A | < 1e-05 s⁻¹ |
| G29A U49G U56G | 3.31e-05 ± 1.3e-05 s⁻¹ |
| A39C G44A G59C | < 1e-05 s⁻¹ |
| A15G U54C C71G | 0.000924 ± 0.00024 s⁻¹ |
| A6C C16U G38U U49G G51U G59C U65A | < 1e-05 s⁻¹ |
| G9C U31A | < 1e-05 s⁻¹ |
| G7C A42G G43A | < 1e-05 s⁻¹ |
| G13A G44C C67A | 9.29e-05 ± 1.9e-05 s⁻¹ |
| G32U G37U G43A A52G C67U | < 1e-05 s⁻¹ |
| C11A G35C G41C | < 1e-05 s⁻¹ |
| G9A A33C C50G A52G G59U C71A | 5.24e-05 ± 2e-05 s⁻¹ |
| A12G U30A C34U U45G C67A | < 1e-05 s⁻¹ |
| C11U C50A G66A | < 1e-05 s⁻¹ |
| A14C U65C C71U | 4.99e-05 ± 2.1e-05 s⁻¹ |
| A36G A48C C68A | < 1e-05 s⁻¹ |
| U30G U49G G63C | < 1e-05 s⁻¹ |
| A14U G37U A48G U49C C71U | < 1e-05 s⁻¹ |

| Variant | self-cleavage kobs at 10000 uM GlcN6P |
| --- | --- |
| A12U A15C C16U | 0.0012 ± 0.00023 s⁻¹ |
| U47A A53U C68G | 4.16e-05 ± 1.7e-05 s⁻¹ |
| A6U A15C A48C A64U | < 1e-05 s⁻¹ |
| A12C C16U A52U | 0.000334 ± 6.5e-05 s⁻¹ |
| C10A U46A A48G | < 1e-05 s⁻¹ |
| G9A A15C C67A | < 1e-05 s⁻¹ |
| A33U C58G C67U C68A | 5.11e-05 ± 1.6e-05 s⁻¹ |
| C34A G35A G40U G41C U46G | < 1e-05 s⁻¹ |
| G35U G40C G59C G62A U69C | < 1e-05 s⁻¹ |
| A15G U30G U46C | 0.000407 ± 0.0001 s⁻¹ |
| A15G A39G U55A C58U | 2.43e-05 ± 1.1e-05 s⁻¹ |
| A6U U45G C67A | 4.59e-05 ± 1.8e-05 s⁻¹ |
| A14G A36C A42U | < 1e-05 s⁻¹ |
| G38A A39U U54A | < 1e-05 s⁻¹ |
| G38U G41U A48U A52G U56C G60A C68G C71U | < 1e-05 s⁻¹ |
| G7C A48G C50A | < 1e-05 s⁻¹ |
| A15U G43A G44C U45G | < 1e-05 s⁻¹ |
| U57C C58A | 2.32e-05 ± 9.2e-06 s⁻¹ |
| G7A A12C G51U | < 1e-05 s⁻¹ |
| U45C U49G | 3.08e-05 ± 1.4e-05 s⁻¹ |
| A6G U47A | 0.000437 ± 0.00013 s⁻¹ |

| Variant | self-cleavage kobs at 10000 uM GlcN6P |
| --- | --- |
| G9A U30A C70A | < 1e-05 s⁻¹ |
| A42U U46C C50A A53U | < 1e-05 s⁻¹ |
| A14G G40C G41U | 0.000186 ± 4e-05 s⁻¹ |
| G43U U46G C50U C58A | < 1e-05 s⁻¹ |
| C8U U54A U69A | 0.00115 ± 0.00055 s⁻¹ |
| A14C G32A U69G | 7e-05 ± 1.6e-05 s⁻¹ |
| C11G A15G G40C U46A G62A A64U | < 1e-05 s⁻¹ |
| A12G C16G C34G U55G | < 1e-05 s⁻¹ |
| U46C G62A G66A C71A | < 1e-05 s⁻¹ |
| A12G U65G C70U | 0.000133 ± 1.7e-05 s⁻¹ |
| C11U G29U C70A | 8.25e-05 ± 2.8e-05 s⁻¹ |
| A14G A15G A33U | 8.09e-05 ± 1.9e-05 s⁻¹ |
| G32C A36C C67U | < 1e-05 s⁻¹ |
| U31A G41U A42U G62A | < 1e-05 s⁻¹ |
| G37A A52G C67U | 5.39e-05 ± 2.2e-05 s⁻¹ |
| U31G U55G C58U | 7.92e-05 ± 1.7e-05 s⁻¹ |
| A36C U47G U65G | < 1e-05 s⁻¹ |
| U30G A42G G62U | < 1e-05 s⁻¹ |
| U56A C67U C71G | 5.21e-05 ± 8.7e-06 s⁻¹ |
